We go through 38 sequences from the supplement of paper PMC7877785.

The nature of this series: self-splicing fitness, log relative to wild type (ln ratio); higher = more splicing; Tetrahymena group I intron in knt gene, E. coli kanamycin selection, DiMSum; sequences stand for … in CUCUCU…GGAGGGAAAAGUUAUCAGGCAUGCACCUGGUAGCUAGUCUUUAAACCAAUAGAUUGCAUCGGUUUAAAAGGCAAGACCGUCAAAUUGCGGGAAAGGGGUCAACAGCCGUUCAGUACCAAGUCUCAGGGGAAACUUUGAGAUGGCCUUGCAAAGGGUAUGGUAAUAAGCUGACGGACAUGGUCCUAACCACGCAGCCAAGUCCUAAGUCAACAGAUCUUCUGUUGAUAUGGAUGCAGUUCACAGACUAAAUGUCGGUCGGGGAAGAUGUAUUCUUCUCAUAAGAUAUAGUCGGACCUCUCCUUAAUGGGAGCUAGCGGAUGAAGUGAUGCAACACUGGAGCCGCUGGGAACUAAUUUGUAUGCGAAAGUAUAUUGAUUAGUUUUGGAGUACUCGUGGUCG
The method in brief:
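A randomised library covering all eight P1ex-region intron nucleotides was built with the intron in the knt kanamycin-resistance gene on pET-22b(+) and held in E. coli BL21(DE3). Cells were grown overnight at 37°C or 30°C on LB agar, with or without 25 μg/mL kanamycin, plus 100 μg/mL carbenicillin, 50 μM IPTG and 0.2% rhamnose, and pooled colonies were amplicon-sequenced on an Illumina HiSeq 2500. DiMSum fitness is the error-weighted combination of wild-type-normalised replicate fold changes, kanamycin versus none.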

± gives the uncertainty stated by the source.

Consider UAGUAGCAAUAUUACGGCAA, for which the “self-splicing fitness (ln)” value (30 °C) is -0.858 ± 0.15 and the “self-splicing fitness (ln)” value (37 °C) is -1.04 ± 0.16.
On the same counts, the results for UAGUAGCAAUAUUACGGGUG are -0.96 ± 0.071 and -0.773 ± 0.079.
In the same order, the values of UAGUAGCAAUAUUACGGUAG are -2.56 ± 0.18 and -1.73 ± 0.22.
On the same counts, the results for UAGUAGCAAUAUUACGGUCA are -0.074 ± 0.16 and -0.852 ± 0.18.
For the sequence UAGUAGCAAUAUUACGUAAA, the “self-splicing fitness (ln)” value is, setting by setting: (30 °C) -3.01 ± 0.21; (37 °C) -1.03 ± 0.15.
Take UAGUAGCAAUAUUACGUAAC: the “self-splicing fitness (ln)” value was -3.54 ± 0.15 (30 °C) and -1.89 ± 0.15 (37 °C).
On to UAGUAGCAAUAUUACGUACG, for which the “self-splicing fitness (ln)” value reads like this: (30 °C) -1.24 ± 0.16; (37 °C) 0.127 ± 0.16.
On the same counts, the results for UAGUAGCAAUAUUACGUACU are -0.816 ± 0.12 and -0.109 ± 0.12.
On the same counts, the results for UAGUAGCAAUAUUACGUCGG are -2.04 ± 0.08 and -1.53 ± 0.12.
On the same counts, the results for UAGUAGCAAUAUUACGUGCA are -0.861 ± 0.12 and -0.189 ± 0.11.
Regarding UAGUAGCAAUAUUACGUGUC, for the setting “37 °C”, the “self-splicing fitness (ln)” value was -2.22 ± 0.34.
Take UAUAAGCAAUAUUACGAAAA: the “self-splicing fitness (ln)” value (30 °C) is -1.72 ± 0.31 and the “self-splicing fitness (ln)” value (37 °C) was -1.27 ± 0.31.
On the same counts, the results for UAUAAGCAAUAUUACGACUU are -0.386 ± 0.13 and -0.681 ± 0.13.
Take UAUAAGCAAUAUUACGAGGC: where the note is “37 °C”, the “self-splicing fitness (ln)” value is -2.5 ± 0.39.
As for UAUAAGCAAUAUUACGAUAG, the “self-splicing fitness (ln)” value runs as follows: (30 °C) -1.4 ± 0.16; (37 °C) -0.486 ± 0.17.
On the same counts, the results for UAUAAGCAAUAUUACGAUGU are -2.49 ± 0.11 and -1.71 ± 0.12.
In the same order, the values of UAUAAGCAAUAUUACGCCCU are -1.15 ± 0.16 and 0.38 ± 0.16.
Turning to UAUAAGCAAUAUUACGCUCG, the “self-splicing fitness (ln)” value is, setting by setting: (30 °C) -0.59 ± 0.082; (37 °C) -0.442 ± 0.11.
UAUAAGCAAUAUUACGGACC: the “self-splicing fitness (ln)” value (30 °C) is -2.68 ± 0.16 and the “self-splicing fitness (ln)” value (37 °C) is -2.07 ± 0.22.
In the same order, the values of UAUAAGCAAUAUUACGGACG are 0.119 ± 0.088 and 0.194 ± 0.11.
Regarding UAUAAGCAAUAUUACGGGGA, the “self-splicing fitness (ln)” value runs as follows: (30 °C) -1.81 ± 0.19; (37 °C) -1.91 ± 0.23.
In the same order, the values of UAUAAGCAAUAUUACGUAAG are -2.45 ± 0.15 and -1.08 ± 0.16.
In the same order, the values of UAUAAGCAAUAUUACGUCGU are -2.37 ± 0.12 and -1.69 ± 0.17.
In the case of UAUAAGCAAUAUUACGUCUG, the “self-splicing fitness (ln)” value is, setting by setting: (30 °C) -0.517 ± 0.081; (37 °C) 0.316 ± 0.098.
With UAUAAGCAAUAUUACGUCUU, the “self-splicing fitness (ln)” value reads like this: (30 °C) -1 ± 0.085; (37 °C) -0.554 ± 0.1.
On the same counts, the results for UAUAAGCAAUAUUACGUUGA are -3.52 ± 0.22 and -1.25 ± 0.12.
In the same order, the values of UAUAAGCAAUAUUACGUUUA are -1.03 ± 0.1 and -0.548 ± 0.11.
On the same counts, the results for UAUAAGCAAUAUUACGUUUU are -3.44 ± 0.23 and -1.85 ± 0.15.
For UAUCAGCAAUAUUACGAAUU, the “self-splicing fitness (ln)” value (30 °C) was -0.95 ± 0.076 and the “self-splicing fitness (ln)” value (37 °C) was 0.113 ± 0.09.
In the same order, the values of UAUCAGCAAUAUUACGAGCC are -3.24 ± 0.34 and -2.33 ± 0.3.
For the sequence UAUCAGCAAUAUUACGAGGA, the “self-splicing fitness (ln)” value is, setting by setting: (30 °C) -0.877 ± 0.13; (37 °C) -1.39 ± 0.14.
Regarding UAUCAGCAAUAUUACGAGGU, the “self-splicing fitness (ln)” value runs as follows: (30 °C) -2.73 ± 0.28; (37 °C) -3.78 ± 0.37.
On the same counts, the results for UAUCAGCAAUAUUACGAGUA are -0.337 ± 0.079 and -0.301 ± 0.088.
On the same counts, the results for UAUCAGCAAUAUUACGAUGG are -0.913 ± 0.062 and 0.0535 ± 0.083.
With UAUCAGCAAUAUUACGCAAC, the “self-splicing fitness (ln)” value (30 °C) was -2.71 ± 0.2 and the “self-splicing fitness (ln)” value (37 °C) was -1.52 ± 0.17.
On the same counts, the results for UAUCAGCAAUAUUACGCGCC are -1.34 ± 0.18 and -0.193 ± 0.26.
In the same order, the values of UAUCAGCAAUAUUACGCGCU are -2.73 ± 0.21 and -1.76 ± 0.23.
With UAUCAGCAAUAUUACGCGGU, the “self-splicing fitness (ln)” value (30 °C) was -2.68 ± 0.13 and the “self-splicing fitness (ln)” value (37 °C) is -2.97 ± 0.27.
